Laboratory results published in publication PMC3629973 (Nuclear medicine and biology, 2012).
Entries after “also recorded” stand apart in the source; their conditions may differ.

Assays:
PC-3 cells [1] = assay: In vitro internalization assay; format: cell-based, human; settings: 37°C, postincubation
[2] = Biodistribution in healthy CF-1 mice; format: in vivo, mouse; settings: female, CF-1, mouse, iv, 750 kBq, total radioactivity
CF-1 mice = assay: Biodistribution in healthy CF-1 mice; format: in vivo, mouse; settings: CF-1 mice, tail vein injection, after 1 h p.i.
[3] = system: PC-3 tumor-bearing SCID mouse; assay: MicroPET/CT imaging; format: in vivo; settings: PC-3 tumor-bearing mouse, 26 MBq via tail vein, 15 h p.i.
in vivo = settings: female, SCID, mouse, iv, 750 kBq, total radioactivity; for tissue uptake at 1 h / tissue uptake at 4 h / tissue uptake at 24 h: Biodistribution
[4] = Biodistribution in PC-3 tumor-bearing SCID mice; settings: female, mouse, in vivo, iv, total radioactivity; for tissue uptake at 24 h: 24 h p.i.
[5] = system: PC-3 tumor-bearing SCID mice; assay: Biodistribution in PC-3 tumor-bearing SCID mice; settings: PC-3 tumor-bearing SCID mice, tail vein injection, 1 h p.i., mean±S.D., n=5, bilateral xenografts
PC-3 cells [6] = assay: Blocking experiment, cellular uptake of tracer; format: cell-based, human; settings: 50 μg blocker added 15 min prior to tracer
GRPr = settings: read-out: GRPr binding affinity; nonmetallated probe; cited from earlier work
[7] = system: PC-3 tumor uptake in nude mice; settings: mouse, in vivo; cited from earlier work
[8] = later time points; cited from earlier work
[9] = molecular target: αvβ3 receptors on PC-3 cells (Homo sapiens, UniProt P05106+P06756); assay: Cell binding assay, displacement of 125I-Echistatin in PC-3 cells
Sequence of αvβ3 receptors on PC-3 cells (P06756 31-889 limits assumed): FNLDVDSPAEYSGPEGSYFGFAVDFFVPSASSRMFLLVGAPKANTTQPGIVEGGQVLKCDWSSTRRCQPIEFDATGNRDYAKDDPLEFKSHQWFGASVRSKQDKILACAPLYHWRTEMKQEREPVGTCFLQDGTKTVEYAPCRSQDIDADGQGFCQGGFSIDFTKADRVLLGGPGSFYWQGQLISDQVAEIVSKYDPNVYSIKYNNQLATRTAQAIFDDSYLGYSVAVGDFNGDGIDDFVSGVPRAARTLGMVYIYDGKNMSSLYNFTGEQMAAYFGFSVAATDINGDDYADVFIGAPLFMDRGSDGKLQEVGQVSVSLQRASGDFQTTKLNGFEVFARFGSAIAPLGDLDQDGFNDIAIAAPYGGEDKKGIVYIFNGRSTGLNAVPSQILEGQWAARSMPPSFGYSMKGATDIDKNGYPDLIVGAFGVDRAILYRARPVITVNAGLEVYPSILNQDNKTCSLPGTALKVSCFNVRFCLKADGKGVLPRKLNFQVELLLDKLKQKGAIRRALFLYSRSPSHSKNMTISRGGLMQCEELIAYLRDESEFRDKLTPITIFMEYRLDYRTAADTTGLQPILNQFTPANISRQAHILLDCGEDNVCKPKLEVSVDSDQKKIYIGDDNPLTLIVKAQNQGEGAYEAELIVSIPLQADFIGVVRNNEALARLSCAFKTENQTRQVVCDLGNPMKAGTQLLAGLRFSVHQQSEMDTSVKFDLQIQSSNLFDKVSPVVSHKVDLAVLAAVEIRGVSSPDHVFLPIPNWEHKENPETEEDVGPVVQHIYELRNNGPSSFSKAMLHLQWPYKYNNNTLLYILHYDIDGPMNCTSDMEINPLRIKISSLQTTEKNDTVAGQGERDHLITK
Sequence of αvβ3 receptors on PC-3 cells (P06756 891-1048 partner limits assumed): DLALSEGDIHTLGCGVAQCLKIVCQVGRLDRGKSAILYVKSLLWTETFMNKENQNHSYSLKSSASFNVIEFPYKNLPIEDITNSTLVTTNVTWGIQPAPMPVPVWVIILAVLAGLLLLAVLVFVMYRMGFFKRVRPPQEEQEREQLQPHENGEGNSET
Sequence of αvβ3 receptors on PC-3 cells (P05106 27-788): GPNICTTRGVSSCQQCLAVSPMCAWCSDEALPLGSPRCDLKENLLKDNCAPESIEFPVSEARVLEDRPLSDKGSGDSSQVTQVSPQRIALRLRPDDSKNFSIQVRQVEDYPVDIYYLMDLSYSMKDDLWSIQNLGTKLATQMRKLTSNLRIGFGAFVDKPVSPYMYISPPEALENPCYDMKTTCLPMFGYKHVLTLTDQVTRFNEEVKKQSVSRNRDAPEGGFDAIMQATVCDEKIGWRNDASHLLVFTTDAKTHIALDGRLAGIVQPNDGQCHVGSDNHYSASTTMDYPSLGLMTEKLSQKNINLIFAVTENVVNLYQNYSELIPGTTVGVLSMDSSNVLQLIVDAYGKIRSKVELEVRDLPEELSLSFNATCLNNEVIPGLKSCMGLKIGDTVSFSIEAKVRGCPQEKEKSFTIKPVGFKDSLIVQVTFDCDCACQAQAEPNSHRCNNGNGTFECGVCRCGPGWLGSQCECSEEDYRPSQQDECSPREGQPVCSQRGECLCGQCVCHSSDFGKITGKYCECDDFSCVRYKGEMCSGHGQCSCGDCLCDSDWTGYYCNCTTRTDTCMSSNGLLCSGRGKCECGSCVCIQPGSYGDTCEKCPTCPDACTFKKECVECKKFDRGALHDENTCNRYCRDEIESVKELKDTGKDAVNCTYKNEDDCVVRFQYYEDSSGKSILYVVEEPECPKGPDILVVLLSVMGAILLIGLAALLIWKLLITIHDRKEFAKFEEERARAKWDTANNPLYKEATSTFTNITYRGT

CSCC[C@H](NC(=O)[C@H](CC(C)C)NC(=O)[C@H](Cc1c[nH]cn1)NC(=O)CNC(=O)[C@@H](NC(=O)[C@H](C)NC(=O)[C@H](Cc1c[nH]c2ccccc12)NC(=O)[C@H](CCC(N)=O)NC(=O)CCCCCNC(=O)[C@H](CCC(=O)NCCCC[C@@H]1NC(=O)[C@@H](Cc2ccc(O)cc2)NC(=O)[C@H](CC(=O)O)NC(=O)CNC(=O)[C@H](CCCNC(=N)N)NC1=O)NC(=O)CN1CCN(CC(=O)O)CCN(CC(=O)O)CC1)C(C)C)C(N)=O [^64Cu-NO2A-RGD-Glu-6-Ahx-BBN(7-14)NH2, metal not drawn]
Time of maximum internalization (PC-3 cells [1]): ~ 90 min | tissue uptake at 1 h ([2]; pancreas): 5.9 ± 1.74 %ID/g | tissue uptake dose at 1 h ([2]; whole blood): 0.42 %ID | Urinary excretion (CF-1 mice): ~85% | MicroPET image quality [3]: high-quality, high-contrast images | tissue uptake dose at 1 h (in vivo): 0.72 ± 0.1 %ID | tissue uptake dose at 4 h (in vivo): 0.16 ± 0.05 %ID | tissue uptake dose at 24 h (in vivo): 0.18 ± 0.02 %ID | tissue uptake at 1 h (in vivo; Bone): 0.52 ± 0.27 %ID/g | tissue uptake at 4 h (in vivo; Bone): 0.13 ± 0.08 %ID/g | tissue uptake at 24 h (in vivo; Bone): 0.13 ± 0.15 %ID/g | tissue uptake at 1 h (in vivo; Brain): 0.05 ± 0.01 %ID/g | tissue uptake at 4 h (in vivo; Brain): 0.04 ± 0.02 %ID/g | tissue uptake at 24 h (in vivo; Brain): 0.03 ± 0.02 %ID/g | tissue uptake at 1 h (in vivo; Heart): 0.35 ± 0.1 %ID/g | tissue uptake at 4 h (in vivo; Heart): 0.22 ± 0.05 %ID/g | tissue uptake at 24 h (in vivo; Heart): 0.48 ± 0.17 %ID/g | tissue uptake at 1 h (in vivo; Large intestine): 1.34 ± 0.11 %ID/g | tissue uptake at 4 h (in vivo; Large intestine): 6.86 ± 0.88 %ID/g | tissue uptake at 24 h (in vivo; Large intestine): 0.85 ± 0.18 %ID/g | tissue uptake at 1 h (in vivo; Lung): 0.97 ± 0.25 %ID/g | tissue uptake at 1 h (in vivo; Muscle): 0.22 ± 0.08 %ID/g | tissue uptake at 4 h (in vivo; Muscle): 0.09 ± 0.04 %ID/g | tissue uptake at 24 h (in vivo; Muscle): 0.08 ± 0.1 %ID/g | tissue uptake at 1 h (in vivo; Pancreas): 21.6 ± 3.3 %ID/g | tissue uptake at 4 h (in vivo; Pancreas): 13.2 ± 1.79 %ID/g | tissue uptake at 24 h (in vivo; Pancreas): 5.18 ± 0.57 %ID/g | tissue uptake at 1 h (in vivo; Small intestine): 5.21 ± 0.75 %ID/g | tissue uptake at 4 h (in vivo; Small intestine): 2.1 ± 0.4 %ID/g | tissue uptake at 24 h (in vivo; Small intestine): 0.78 ± 0.14 %ID/g | tissue uptake at 1 h ([4]; ICR SCID, 750 kBq (~20 uCi)): 1.04 ± 0.08 %ID/g | tissue uptake at 1 h ([4]; SCID, 750 kBq, Biodistribution, Bladder, PC-3 tumor-bearing SCID mice, tail vein injection, 1 h p.i., mean±S.D., n=5): 3.39 ± 3.54 %ID/g | tissue uptake at 4 h ([4]; SCID, 750 kBq, Biodistribution, Bladder, PC-3 tumor-bearing SCID mice, tail vein injection, 4 h p.i., mean±S.D., n=5): 0.55 ± 0.33 %ID/g | tissue uptake at 24 h ([4]; SCID, 750 kBq, Biodistribution, Bladder, PC-3 tumor-bearing SCID mice, tail vein injection, mean±S.D., n=5): 0.31 ± 0.29 %ID/g | tissue uptake at 24 h ([4]; SCID, 750 kBq, Biodistribution, Tumor, PC-3 tumor-bearing SCID mice, tail vein injection, mean±S.D., n=5, bilateral xenografts): 2.42 ± 0.57 %ID/g | Biodistribution, Tumor [5]: 3.95±1.04 %ID/g

NO2A-RGD
Reduction of cellular uptake of ^64Cu-NO2A-RGD-Glu-6-Ahx-BBN(7-14)NH2 tracer (PC-3 cells [6]): 65%

NO3A-RGD-BBN(7-14)NH2
IC50 (GRPr): 92.8 ± 3.53 nM

^64Cu-NO3A-BBN(7-14)NH2
PC-3 tumor retention [7]: 0.44±0.39 %ID/g

^64Cu-NO3A-RGD
PC-3 tumor retention [7]: 0.55±0.32 %ID/g

^64Cu-NO3A-RGD-BBN(7-14)NH2
Internalization rate compared to ^64Cu-NO2A-RGD-Glu-6-Ahx-BBN(7-14)NH2 [8]: approximately three times higher | PC-3 tumor retention [7]: 2.04±0.35 %ID/g | Retention in the kidneys [7]: 1.87±0.41 %ID/g

^natCu-NO2A-RGD
Displacement of 125I-Echistatin (binding affinity for αvβ3 receptors) [9]: minimal displacement; also recorded: extremely poor binding affinity
